Results: patent publication US6689362B1, “Method for treating T-lineage leukemias and lymphomas using a CD7-specific monoclonal antibody (TXU-7) linked to the pokeweed antiviral protein (PAP)” (priority 1997, dated 2004)
Where “and” joins values, the source holds several entries; their conditions need not be identical. Equal values may be shown once. Read-outs that look alike come from different tables or passages of the source.

Legend:
[1] = tested on: ribosomes (nuclease-treated rabbit reticulocyte lysate); assay: Cell-free protein synthesis inhibition assay (rabbit reticulocyte cell-free translation); assay type: biochemical
Description: The ribosome-inhibiting activity of PAP was analyzed in a cell-free translation system obtained in kit form from Promega Biotec, Inc. (Madison, Wis.) and based on a method developed by Pelham and Jackson. Pelham et al., Eur. J. Biochem., 67, 247 (1976). This system consists of the following: nuclease-treated rabbit reticulocyte lysate (35 μL), 1 mM animo acid mixture minus leucine (1 μl), [^3H] leucine (183 Ci/mmol, 1 mCi/mL, Amersham Corp., Arlington Hts, Ill.), 5 μl of brome mosaic virus RNA (2 μL of 0.5 μg/μL stock), and water or buffer to bring the final volume to 50 μL per assay tube. Samples are diluted in PBS and 2.5-5 μL amounts were added to the lysate. Control samples minus toxin were set up in triplicate. At 0 hr (immediately after adding [^3H]-leucine and RNA and mixing gently to start the reaction), 10 μL aliquots were removed from the control and mixed with 1 mL 1 N NaOH to stop the reaction. The control toxin-treated samples were incubated an additional 60 minutes at 37° C., at which time 10 μL samples were again removed to NaOH, mixed, and 50 μL of 30% H2O2 added to decolorize the samples.
Following 10 minutes incubation at 37° C., the tubes were transferred to an ice bath and 2 mL of cold 4% casamino acids followed by 2 mL of cold 50% trichioroacetic acid (TCA) were added to precipitate the synthesized protein. After 30 minutes on ice, the samples were filtered through GF/F glass microfiber filters (Whatman, Hillsboro, Oreg.). The extent of protein synthesis inactivation is determined as percent control response=100 ×([^3H]-leucine incorporation [mean cpm at t60′−mean cpm at t0] for the toxin-treated samples)/([^3H]-leucine incorporation [mean cpm at t60′−mean cpm at t0] for the untreated control).

BALB/c mice = assay: Acute toxicity of PAP, single i.v. injection; assay type: in vivo
Description: Female BALB/c mice weighing approximately 20 grams were given a single intravenous injection of purified PAP (Lot #P-1993) via the tail vein. Eight different doses were used ranging from 10 μg to 175 μg and each dose was tested in 5 mice. Mice were monitored for 30 days for morbidity and mortality. […] This non-toxic dose is >90-fold higher than the highest PAP dose that will be given to patients as a TXU-7 antibody conjugate. Deaths were observed only in the groups receiving 150 μg/20 g mouse (=7.5 mg/kg) or higher doses.

B1: PAP: 29 kDa ribosome-inactivating protein from spring leaves of pokeweed (Phytolacca americana) (protein)
chain: VNTIIYNVGSTTISKYATFLNDLRNEAKDPSLKCYGIPMLPNTNTNPKYVLVELQGSNKKTITLMLRRNNLYVMGYSDPFETNKCRYHIFNDISGTERQDVETTLCPNANSRVSKNINFDSRYPTLESKAGVKSRSQVQLGIQILDSNIGKISGVMSFTEKTEAEFLLVAIQMVSEAARFKYIENQVKTNFNRAFNPNPKVLNLQETWGKISTAIHDAKNGVLPKPLELVDASGAKWIVLRVDEIKPDVALLNYVGGSCQTTY
B1 was tested, and the “IC (mean SE) value, ribosome inhibitory activity (first IC value)” value ([1]; purified PAP batches (n=6)) was 0.34 ± 0.06 ng/mL, the “IC value, ribosome inhibitory activity (second IC value)” value ([1]; purified PAP batches (n=6)) was 3.7±1.1 ng/mL and 130.37 pM and the IC50 ([1]; purified PAP batches (n=6), read-out: IC value, ribosome inhibitory activity (first IC value)) was 12.2 pM. For the same molecule, the “range of first IC value” ([1]; range over PAP batches (n=6)) was 0.17 to 0.58 ng/mL, the “range of second IC value” ([1]; range over PAP batches (n=6)) was 0.63-7.5 ng/mL and 22-263 pM and the IC50 ([1]; range over PAP batches (n=6), read-out: range of first IC value) was 6 to 20 pM. The “non-toxic dose relative to highest PAP dose to be given to patients as conjugate” value (BALB/c mice; 100 μg/20 g mouse dose) was over 90 fold, the “lethal dose relative to highest PAP dose to be given to patients as TXU-7-PAP” value (BALB/c mice; 150 μg/20 g mouse dose) was over 60 fold and the “Acute Toxicity in Mice LD50 (i.v.)” value (BALB/c mice; i.v.) was “LD50 (i.v.) 150 mg/mouse”.
